From patent US20240043542A1 (published 2024)
Like-named read-outs stand apart in the source and are kept apart here. Values belong to the binder of their own block, whether it stands above or below them.

Key:
[1] = target: T1, cynomolgus monkey B7-H4 (recombinant, BLI) (cynomolgus monkey, UniProt Q7Z7D3 25-259 (human entry)); test: BLI, antigen on Protein A tips;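 also: Anti-B7-H4 antibodies assessed for affinity toward the B7-H4 extracellular domain using biolayer interferometry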
T1 construct: also called Cynomolgus B7-H4
T1 sequence: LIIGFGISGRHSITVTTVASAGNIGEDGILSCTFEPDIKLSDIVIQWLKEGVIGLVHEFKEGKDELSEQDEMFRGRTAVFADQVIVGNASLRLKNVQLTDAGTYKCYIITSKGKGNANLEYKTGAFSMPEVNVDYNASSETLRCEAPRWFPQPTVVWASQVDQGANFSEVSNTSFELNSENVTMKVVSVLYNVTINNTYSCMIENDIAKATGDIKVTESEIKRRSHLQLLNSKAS
Protocol: (§1) Binding affinities of anti-B7-H4 antibodies to B7-H4-extracellular domain (ECD) were determined by biolayer interferometry (BLI). […] Anti-B7-H4 antibodies were then evaluated for binding.

[2] = target: T2, recombinant human B7-H4-huIgG1 (human); test: BLI, antigen on Protein A tips;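 also: Anti-B7-H4 antibodies assessed for affinity toward the B7-H4 extracellular domain using biolayer interferometry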
T2 construct: also called B7-H4-extracellular domain (ECD)
Protocol: as §1

[3] = target: T3, mouse B7-H4 (recombinant, BLI) (mouse, UniProt Q7TSP5 29-256, limits assumed); test: BLI, antigen on Protein A tips;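 also: Anti-B7-H4 antibodies assessed for affinity toward the B7-H4 extracellular domain using biolayer interferometry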
T3 construct: also called murine B7-H4
T3 sequence: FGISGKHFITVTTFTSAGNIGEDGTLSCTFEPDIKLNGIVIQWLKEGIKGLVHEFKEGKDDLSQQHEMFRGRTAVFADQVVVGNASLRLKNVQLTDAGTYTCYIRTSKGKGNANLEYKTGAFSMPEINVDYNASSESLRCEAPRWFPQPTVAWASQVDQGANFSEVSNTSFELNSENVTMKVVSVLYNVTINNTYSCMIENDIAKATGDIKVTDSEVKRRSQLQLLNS
Protocol: as §1

[4] = target: T4, cynomolgus monkey B7-H4 on the cell surface (cynomolgus monkey, UniProt Q7Z7D3 25-282 (human entry)); test: flow cytometry, 100 nM, transfected HEK293T
T4 construct: full-length, on transfected HEK293T cells
T4 chain: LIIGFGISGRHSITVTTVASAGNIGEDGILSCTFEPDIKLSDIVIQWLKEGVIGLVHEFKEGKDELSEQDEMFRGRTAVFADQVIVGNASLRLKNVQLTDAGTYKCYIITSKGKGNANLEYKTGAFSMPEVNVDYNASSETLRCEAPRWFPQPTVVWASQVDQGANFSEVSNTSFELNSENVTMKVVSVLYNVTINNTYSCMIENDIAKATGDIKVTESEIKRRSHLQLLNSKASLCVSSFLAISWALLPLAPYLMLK
Protocol: (§2) HEK293T cell lines were transfected to express full-length human, cynomolgus monkey, mouse, or rat B7-H4. In addition, the endogenous human B7-H4 expressing SK-BR-3 breast cancer cell line was used to assess the ability of the antibodies to bind B7-H4 expressed on the cell surface. 1×10⁵ parental HEK293T or transfected HEK293T cell lines were incubated with 100 nM of the B7-H4 antibodies. Following incubation, cells were pelleted, washed, and incubated with a secondary labeling antibody, and samples were acquired on a flow cytometer. Fold binding over the parental cell line (FOP) was calculated as follows: MFI transfected HKE293T cells/MFI parental HEK293T cells.

[5] = target: T5, human B7-H4 on the cell surface (human, UniProt Q7Z7D3 25-282); test: flow cytometry, 100 nM, transfected HEK293T
T5 construct: full-length human B7-H4 on transfected HEK293T cells or endogenous on SK-BR-3 cells; also called SK-BR-3 (endogenous human B7-H4)
T5 sequence: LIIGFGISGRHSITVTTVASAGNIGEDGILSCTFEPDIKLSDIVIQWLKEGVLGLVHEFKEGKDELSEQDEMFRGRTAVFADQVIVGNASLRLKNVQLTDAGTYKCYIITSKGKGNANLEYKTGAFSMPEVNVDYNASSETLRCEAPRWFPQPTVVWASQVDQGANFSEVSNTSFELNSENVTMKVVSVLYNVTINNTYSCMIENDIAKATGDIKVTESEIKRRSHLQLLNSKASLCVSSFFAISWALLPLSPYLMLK
Protocol: as §2

[6] = target: T6, mouse B7-H4 on the cell surface (mouse, UniProt Q7TSP5 25-257); test: flow cytometry, 100 nM, transfected HEK293T
T6 construct: full-length, on transfected HEK293T cells
T6 sequence: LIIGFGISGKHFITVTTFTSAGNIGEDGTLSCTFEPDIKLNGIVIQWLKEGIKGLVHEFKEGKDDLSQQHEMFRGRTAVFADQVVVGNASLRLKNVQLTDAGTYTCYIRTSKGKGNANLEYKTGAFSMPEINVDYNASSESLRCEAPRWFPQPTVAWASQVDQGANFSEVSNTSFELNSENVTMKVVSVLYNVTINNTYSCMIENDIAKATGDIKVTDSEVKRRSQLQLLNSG
Protocol: as §2

[7] = target: T7, rat B7-H4 on the cell surface (rat, UniProt Q501W4 25-257); test: flow cytometry, transfected 293 cells
T7 construct: full-length, on transfected HEK293T cells
T7 sequence: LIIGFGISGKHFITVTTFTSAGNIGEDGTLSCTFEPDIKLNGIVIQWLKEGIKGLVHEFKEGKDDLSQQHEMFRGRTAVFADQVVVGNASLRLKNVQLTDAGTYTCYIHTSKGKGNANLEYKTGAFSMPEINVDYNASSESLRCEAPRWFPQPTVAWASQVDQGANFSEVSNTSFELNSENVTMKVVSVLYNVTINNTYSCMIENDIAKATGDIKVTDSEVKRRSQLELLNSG
Protocol: (§3) Following incubation, cells were pelleted, washed and incubated with a secondary labeling antibody and samples were acquired on a flow cytometer. Data was analyzed using the FlowJo software and MFI was plotted vs. antibody concentration. The EC50 cell binding potency was calculated using nonlinear regression curve fit (GraphPad Prism).

[8] = target: T4, cynomolgus monkey B7-H4 on the cell …; test: flow cytometry, transfected 293 cells
Protocol: as §3

[9] = target: T6, mouse B7-H4 on the cell surface; test: flow cytometry, transfected 293 cells
Protocol: as §3

B7-H4 IgV-huIgG1 = target: T8, B7-H4 IgV-huIgG1 (human); test: SPR, antibody captured by anti-human Fab, antigen in flow
T8 construct: also called N-terminal domain of human B7-H4
Protocol: Briefly, anti-human Fab antibody was immobilized on a carboxyl-derivatized SPR chip surface, and anti-B7-H4 antibodies were captured on the resulting surface at 5 ug/ml for 30 seconds.

[10] = target: T5, human B7-H4 on the cell surface; test: cell-based or functional assay
[11] = target: T5, human B7-H4 on the cell surface; test: flow cytometry, SK-BR-3 cells
Protocol: as §3

[12] = target: T5, human B7-H4 on the cell surface; test: cell-based or functional assay; remark: listed apart in the source
[13] = target: T6, mouse B7-H4 on the cell surface; test: flow cytometry, transfected HEK293T

B1: B7-H4 antibody 15465 (antibody, human IgG1, kappa, V domains shown)
VH: QVQLQESGPGLVKPSQTLSLTCTVSGGSISSGGYYWSWIRQHPGKGLEWIGNIYYSGSTYYNPSLKSRVTISVDTSKNQFSLKLSSVTAADTAVYYCARESSTISADFDLWGRGTLVTVSS
VL: DIQMTQSPSSVSASVGDRVTITCRASQGISRWLAWYQQKPGKAPKLLIYAASSLQSGVPSRFSGSGSGTDFTLTISSLQPEDFATYYCQQAHTFPYTFGGGTKVEIKR
notes: human IgG1/kappa
- Kd [1]: 51.1 nM
- koff [1]: 0.0278 s⁻¹
- kon [1]: 544000 M⁻¹ s⁻¹
- Kd [2]: 51.3 nM
- koff [2]: 0.0248 s⁻¹
- kon [2]: 484000 M⁻¹ s⁻¹
- Kd [3]: 89.6 nM
- koff [3]: 0.0265 s⁻¹
- kon [3]: 296000 M⁻¹ s⁻¹
- FOP (fold binding over the parental cell line) [4]: 1320 fold
- FOP (fold binding over the parental cell line) [5]: 626 fold
- FOP (fold binding over the parental cell line) [6]: 690 fold
- EC50 [7]: 1.47 nM
- EC50 [8]: 4.9 nM
- EC50 [9]: 5.34 nM
- Kd (B7-H4 IgV-huIgG1): 17.3 nM
- koff (B7-H4 IgV-huIgG1): 0.00417 s⁻¹
- kon (B7-H4 IgV-huIgG1): 241000 M⁻¹ s⁻¹
- Donor 1 Max IFNγ [10]: 230 pg/mL
- Donor 2 Max IFNγ [10]: 134 pg/mL
- Donor 3 Max IFNγ [10]: 1520 pg/mL
- Donor 4 Max IFNγ [10]: 865 pg/mL
- aAPC Assay EC50 (IFNγ production) [10]: 4310 nM
- EC50 [11]: 2.13 nM

B2: B7-H4 antibody 15461 (antibody, human IgG1, kappa, V domains shown)
VH: QLQLQESGPGLVKPSETLSLTCTVSGGSISSSSYYWGWIRQPPGKGLEWIGNIYYSGSTYYNPSLKSRVTISVDTSKNQFSLKLSSVTAADTAVYYCAREGSYPNWFDPWGQGTLVTVSS
VL: EIVMTQSPATLSVSPGERATLSCRASQSVSSNLAWYQQKPGQAPRLLIYGASTRATGIPARFSGSGSGTEFTLTISSLQSEDFAVYYCQQYHSFPFTFGGGTKVEIKR
notes: human IgG1/kappa
- Kd [1]: 62.1 nM
- koff [1]: 0.027 s⁻¹
- kon [1]: 434000 M⁻¹ s⁻¹
- Kd [2]: 62.9 nM
- koff [2]: 0.024 s⁻¹
- kon [2]: 381000 M⁻¹ s⁻¹
- Kd [3]: 55.7 nM
- koff [3]: 0.017 s⁻¹
- kon [3]: 305000 M⁻¹ s⁻¹
- FOP (fold binding over the parental cell line) [4]: 610 fold
- FOP (fold binding over the parental cell line) [5]: 333 fold
- FOP (fold binding over the parental cell line) [6]: 887 fold
- EC50 [7]: 1.67 nM
- EC50 [8]: 6.77 nM
- EC50 [9]: 6.37 nM
- Kd (B7-H4 IgV-huIgG1): 30.4 nM
- koff (B7-H4 IgV-huIgG1): 0.00519 s⁻¹
- kon (B7-H4 IgV-huIgG1): 171000 M⁻¹ s⁻¹
- Donor 1 Max IFNγ [10]: 312 pg/mL
- Donor 2 Max IFNγ [10]: 165 pg/mL
- Donor 3 Max IFNγ [10]: 1960 pg/mL
- Donor 4 Max IFNγ [10]: 987 pg/mL
- aAPC Assay EC50 (IFNγ production) [10]: 531 nM
- EC50 [11]: 5.66 nM

B5: B7-H4 antibody 15441 (antibody, human IgG1, kappa, V domains shown)
VH: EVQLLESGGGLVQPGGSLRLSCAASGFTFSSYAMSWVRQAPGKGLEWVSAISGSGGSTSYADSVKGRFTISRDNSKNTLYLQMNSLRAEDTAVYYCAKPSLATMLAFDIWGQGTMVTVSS
VL: DIQMTQSPSTLSASVGDRVTITCRASQSISSWLAWYQQKPGKAPKLLIYDASSLESGVPSRFSGSGSGTEFTLTISSLQPDDFATYYCQQSKSYPRTFGGGTKVEIKR
notes: human IgG1/kappa
- Kd [1]: 54.6 nM
- koff [1]: 0.0727 s⁻¹
- kon [1]: 1.33e+06 M⁻¹ s⁻¹
- Kd [2]: 7.15 nM
- koff [2]: 0.00872 s⁻¹
- kon [2]: 1.22e+06 M⁻¹ s⁻¹
- binding result [3]: no binding
- FOP (fold binding over the parental cell line) [5]: 67 fold
- EC50 [11]: 34.3 nM
- binding result [13]: no binding (tested: FOP 10; 100 nM antibody)

Next, values leading:

- Donor 1 Max IFNγ [12]: 850 pg/mL
- Donor 2 Max IFNγ [12]: 310 pg/mL
- Donor 3 Max IFNγ [12]: 136 pg/mL
- Donor 4 Max IFNγ [12]: 4490 pg/mL
- aAPC Assay EC50 (IFNγ production) [12]: 0.79 nM
- Kd [1]: 2.42 nM
- koff [1]: 0.00246 s⁻¹
- kon [1]: 1.02e+06 M⁻¹ s⁻¹
- Kd [2]: 2.56 nM
- koff [2]: 0.00251 s⁻¹
- kon [2]: 980000 M⁻¹ s⁻¹
- Kd [3]: 3.35 nM
- koff [3]: 0.00375 s⁻¹
- kon [3]: 1.12e+06 M⁻¹ s⁻¹
- FOP (fold binding over the parental cell line) [4]: 728 fold
- FOP (fold binding over the parental cell line) [5]: 205 fold
- FOP (fold binding over the parental cell line) [6]: 546 fold
- EC50 [7]: 1.15 nM
- EC50 [8]: 3.89 nM
- EC50 [9]: 4.67 nM
- EC50 [11]: 1.9 nM
B3: B7-H4 antibody 20501 (antibody, human IgG1, kappa, V domains shown)
VH: QLQLQESGPGLVKPSETLSLTCTVSGGSIKSGSHYWGWIRQPPGKGLEWIGNIYYSGSTYYNPSLKSRVTISVDTSKNQFSLKLSSVTAADTAVYYCAREGSYPNWLDPWGQGTLVTVSS
VL: EIVMTQSPATLSVSPGERATLSCRASQSVSSNLAWYQQKPGQAPRLLIYGASTRATGIPARFSGSGSGTEFTLTISSLQSEDFAVYYCQQYHSFPFTFGGGTKVEIKR
notes: human IgG1/kappa

- Donor 1 Max IFNγ [12]: 937 pg/mL
- Donor 2 Max IFNγ [12]: 304 pg/mL
- Donor 3 Max IFNγ [12]: 174 pg/mL
- Donor 4 Max IFNγ [12]: 4270 pg/mL
- aAPC Assay EC50 (IFNγ production) [12]: 0.79 nM
- Kd [1]: 2.64 nM
- koff [1]: 0.00139 s⁻¹
- kon [1]: 528000 M⁻¹ s⁻¹
- Kd [2]: 3.07 nM
- koff [2]: 0.0015 s⁻¹
- kon [2]: 487000 M⁻¹ s⁻¹
- Kd [3]: 3.99 nM
- koff [3]: 0.00207 s⁻¹
- kon [3]: 520000 M⁻¹ s⁻¹
- FOP (fold binding over the parental cell line) [4]: 683 fold
- FOP (fold binding over the parental cell line) [5]: 200 fold
- FOP (fold binding over the parental cell line) [6]: 559 fold
- EC50 [7]: 1.26 nM
- EC50 [8]: 4.94 nM
- EC50 [9]: 5.57 nM
- EC50 [11]: 2.5 nM
B4: B7-H4 antibody 20502.1 (antibody, human IgG1, kappa, V domains shown)
VH: QLQLQESGPGLVKPSETLSLTCTVSGGSIKSGSYYWGWIRQPPGKGLEWIGNIYYSGSTYYNPSLKSRVTISVDTSKNQFSLKLSSVTAADTAVYYCAREGSYPNQFDPWGQGILVTVSS
VL: EIVMTQSPATLSVSPGERATLSCRASQSVSSNLAWYQQKPGQAPRLLIYGASTRATGIPARFSGSGSGTEFTLTISSLQSEDFAVYYCQQYHSFPFTFGGGTKVEIKR
notes: human IgG1/kappa
